How the values were obtained:
Assay in all cases: ELISA: SEAP-His proteins (1 nM) captured on anti-6-His antibody, antibody A 10 µg/mL with human IgG 100 µg/mL, HRP anti-mouse IgG, OD450 as % of human EphA4-SEAP-His
[1] = molecular target: T1, human EphA3 extracellular region-SEAP-His protein (human, UniProt P29320 21-541)
T1 construct: extracellular domain; also called Eph receptor extracellular region-SEAP-His protein; not shown: secretory alkaline phosphatase (SEAP); histidine tag
T1 sequence (looked up): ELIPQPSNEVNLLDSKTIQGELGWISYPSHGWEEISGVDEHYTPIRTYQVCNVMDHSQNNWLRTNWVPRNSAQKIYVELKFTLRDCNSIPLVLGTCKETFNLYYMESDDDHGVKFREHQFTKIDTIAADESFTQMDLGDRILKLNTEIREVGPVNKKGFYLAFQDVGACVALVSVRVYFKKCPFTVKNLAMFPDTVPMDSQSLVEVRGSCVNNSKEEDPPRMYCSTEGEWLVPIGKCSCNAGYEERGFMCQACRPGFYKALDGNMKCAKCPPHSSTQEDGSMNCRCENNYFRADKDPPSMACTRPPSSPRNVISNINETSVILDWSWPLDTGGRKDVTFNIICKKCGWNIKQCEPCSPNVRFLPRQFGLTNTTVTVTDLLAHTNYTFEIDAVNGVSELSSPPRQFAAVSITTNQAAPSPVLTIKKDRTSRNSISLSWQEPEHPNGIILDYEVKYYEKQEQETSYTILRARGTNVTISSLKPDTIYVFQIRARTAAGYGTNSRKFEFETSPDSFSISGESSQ
Description: (§1) Rabbit anti-6-His antibodies (Bethel Laboratories) were coated onto the wells of a 96-well plate (Nunc). After incubating at 4° C. overnight, the wells were blocked at room temperature for 1 hour by 1% Block Ace (DS Pharma Biomedical). After washing 3 times with 0.05% Tween 20/PBS (Thermo […]), each Eph receptor of human extracellular region-SEAP-His protein (final concentration 1 nM) was seeded into each well, and incubated at room temperature for 1 hour. After washing 3 times, human IgG solution (100 μg/mL, Mitsubishi Pharma Corporation) and antibody A (10 μg/mL) were supplemented to the wells, and incubated at room temperature for 1 hour. Horseradish peroxidase-labeled donkey anti-mouse IgG antibody (Jackson ImmunoResearch Laboratories) was added, and incubated at room, temperature for 1 hour. After washing 3 times, TMBZ (3,3′,5,5′-tetramethylbenzidine, Sigma) solution was added to the wells, and upon confirmation of modest coloring, an equal amount of quenching solution (1 N H₂SO₄, Wako Pure Chemicals) was added to the wells, and absorbance at 450 nm was read by a microplate reader (PerkinElmer).

[2] = molecular target: T2, human EphA10 extracellular region-SEAP-His protein (human, UniProt Q5JZY3 34-565)
T2 construct: extracellular domain; also called Eph receptor extracellular region-SEAP-His protein; not shown: secretory alkaline phosphatase (SEAP); histidine tag
T2 sequence (looked up): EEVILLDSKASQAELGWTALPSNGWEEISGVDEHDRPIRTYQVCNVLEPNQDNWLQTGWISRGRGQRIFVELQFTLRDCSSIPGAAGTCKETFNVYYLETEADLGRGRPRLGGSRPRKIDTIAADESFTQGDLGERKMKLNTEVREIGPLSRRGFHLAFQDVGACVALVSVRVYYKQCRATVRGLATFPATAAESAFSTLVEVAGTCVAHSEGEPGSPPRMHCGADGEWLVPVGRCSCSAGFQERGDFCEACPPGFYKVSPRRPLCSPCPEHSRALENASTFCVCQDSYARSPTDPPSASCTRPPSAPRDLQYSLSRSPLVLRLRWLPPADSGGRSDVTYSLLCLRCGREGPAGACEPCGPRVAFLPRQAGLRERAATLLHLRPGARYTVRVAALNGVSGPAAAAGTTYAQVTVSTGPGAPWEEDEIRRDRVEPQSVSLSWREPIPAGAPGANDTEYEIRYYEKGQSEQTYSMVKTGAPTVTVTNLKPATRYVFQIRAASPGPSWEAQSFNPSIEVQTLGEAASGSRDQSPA
Description: as §1

[3] = molecular target: T3, human EphB6 extracellular region-SEAP-His protein (human, UniProt O15197 32-594)
T3 construct: extracellular domain; also called Eph receptor extracellular region-SEAP-His protein; not shown: secretory alkaline phosphatase (SEAP); histidine tag
T3 sequence (looked up): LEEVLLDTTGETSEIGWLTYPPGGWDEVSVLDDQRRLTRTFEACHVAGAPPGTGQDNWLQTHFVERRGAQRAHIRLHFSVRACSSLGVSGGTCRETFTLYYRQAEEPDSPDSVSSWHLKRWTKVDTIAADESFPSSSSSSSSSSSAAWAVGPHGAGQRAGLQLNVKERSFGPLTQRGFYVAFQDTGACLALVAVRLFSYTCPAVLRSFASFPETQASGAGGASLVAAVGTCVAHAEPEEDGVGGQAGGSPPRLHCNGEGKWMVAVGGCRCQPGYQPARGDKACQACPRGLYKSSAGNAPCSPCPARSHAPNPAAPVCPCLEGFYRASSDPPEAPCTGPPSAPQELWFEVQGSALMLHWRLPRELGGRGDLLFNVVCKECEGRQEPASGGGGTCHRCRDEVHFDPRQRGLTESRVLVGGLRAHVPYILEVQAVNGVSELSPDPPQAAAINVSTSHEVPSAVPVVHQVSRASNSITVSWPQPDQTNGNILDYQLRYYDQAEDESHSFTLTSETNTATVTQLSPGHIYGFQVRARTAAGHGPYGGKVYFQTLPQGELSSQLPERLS
Description: as §1

Measured: binding result

B1: mouse anti-EphA4 monoclonal antibody (antibody A) (antibody, mouse IgG1, kappa, V domains shown)
VH: QVQLKQSGPSLVQPSQSLSITCTVSGFSLTRYGVHWVRQSPGKGLEWLGVIWRGGSTDYNAAFMSRLSITKDNSKSQVFFKMNSLQADDTAIYYCAKESLFGVYYDYGYYSMDYWGQGTSVTVSS
VL: DIQMTQSPSSLSASLGERVSLTCRASQEISGYLSWLQQKPDGTIKRLIYAASTLDSGVPKRFSGSRSGSDYSLTISSLESEDFADYYCLQYASYPLTFGAGTKLELKR
notes: purified from hybridoma supernatant
no binding (tested: 10 µg/mL): all assays above

— patent US20240010735A1 (EISAI R AND D MANAGEMENT, published 2024)
